Test [1] concerns the target T1, recombinant human TSLP-his (human, UniProt Q969D9 29-159, biotin-labeled in the ELISAs).
T1 construct: In-house made; not shown: His tag at the C-terminus
Nature of the test: capture ELISA: antibody captured on anti-human IgG Fc F(ab')2, biotin human TSLP-his, SA-HRP. The protocol: (§1) Briefly, 96-well micro plates were coated with 100 μL 2 μg/mL AffiniPure F(ab′)₂ Fragment Goat Anti-Human IgG, Fey fragment specific (Jackson Immuno Research, Cat #109-006-008) in PBS and incubated overnight at 4° C. Plates were washed 4 times with wash buffer (PBS+0.05% Tween-20, PBST) and then blocked with 200 μL/well blocking buffer (5% w/v non-fatty milk in PBST) for 2 hours at 37° C. […] After the final wash, the plates were incubated with 100 μL/well TMB (Innoreagents). The reaction was stopped 15 minutes later at room temperature with 50 μL/well 1M H₂SO₄, and the absorbance of each well was read on a microplate reader using dual wavelength mode with 450 nm for TMB and 630 nm as the reference wavelength. The OD (450-630) values were plotted against antibody concentration. Data was analyzed using Graphpad Prism and EC₅₀ values were reported.
In general terms: ELISA stands for enzyme-linked immunosorbent assay.

In test [2] the target is T1, recombinant human TSLP-his. Put plainly: SPR Biacore; TSLP-his amine-coupled to CM5 chip, antibody as analyte; 1:1 Langmuir fit. The protocol: Un-reacted moieties on the biosensor surface were blocked with ethanolamine. Then, serially diluted purified bispecific antibodies and the controls (2-fold serial dilution in HBS-EP⁺ buffer starting at 100 nM) were respectively flowed onto the chip at a flow rate of 30 μL/min. The antigen-antibody association kinetics was followed for 4 minutes and the dissociation kinetics was followed for 13 minutes.
For orientation: In SPR one partner is held on a chip, and binding of the other changes the refractive index at the surface.

For test [3], the target named is T1, recombinant human TSLP-his. Nature of the test: capture ELISA: antibody captured on anti-human IgG Fc F(ab')2, biotin human TSLP-his, SA-HRP. The procedure: as §1
The source holds these as a separate data set.

Read-outs that look alike come from different tables or passages of the source.

B1: hu1C5F12E9-V8(IgG1) (antibody)
heavy: QVQLVQSGAEVKKPGASVKVSCKASGYTFTTYWMHWVRQAPGQGLEWMGVIDPSDSDTTYNQKFKGRVTMTRDTSTSTVYMELSSLRSEDTAVYYCTRSLDGYYDYWGQGTLVTVSSASTKGPSVFPLAPSSKSTSGGTAALGCLVKDYFPEPVTVSWNSGALTSGVHTFPAVLQSSGLYSLSSVVTVPSSSLGTQTYICNVNHKPSNTKVDKKVEPKSCDKTHTCPPCPAPEAQGGPSVFLFPPKPKDTLYITREPEVTCVVVDVSHEDPEVKFNWYVDGVEVHNAKTKPREEQYNSTYRVVSVLTVLHQDWLNGKEYKCQVSNKALPAPIEKTISKAKGQPREPQVYTLPPSRDELTKNQVSLTCLVKGFYPSDIAVEWESNGQPENNYKTTPPVLDSDGSFFLYSKLTVDKSRWQQGNVFSCSVMHEALHNHYTQKSLSLSPG
light: DIQMTQSPSSLSASVGDRVTITCRPTENIYSYLAWYQQKPGKAPKLLIYFARTLAEGVPSRFSGSGSGTDFTLTISSLQPEDFATYYCQHHYGTPWTFGGGTKVEIKRTVAAPSVFIFPPSDEQLKSGTASVVCLLNNFYPREAKVQWKVDNALQSGNSQESVTEQDSKDSTYSLSSTLTLSKADYEKHKVYACEVTHQGLSSPVTKSFNRGEC
notes: Monospecific control, full-length IgG1; also called anti-TSLP hu1C5F12E9-V8
The term EC50 denotes the concentration giving half of the maximal effect. As usually defined, the Kd is the constant that tells how readily two partners part at equilibrium. As usually defined, the koff is the first-order rate constant of dissociation. Usually kon stands for the rate constant with which the complex forms. Turning to B1, the EC50 in test [1] is 0.0487 nM. Moreover, in test [2], the Kd is less than 0.0157 nM, the off-rate (koff) was less than 1e-05 s⁻¹ and the kon worked out at 636000 M⁻¹ s⁻¹. Also, the concentration for a half-maximal effect (EC50) in test [3] stood at 0.0511 nM.

These data come from patent US20260109758A1 (BIOSION, published 2026).
